Data on 1 molecule can be found in patent publication US6863885B2, “Method of decreasing radiation or radio-mimetic chemotherapy for hematopoietic pluripotent cell engraftment” (The United States of America as represented by the …, priority 1995, dated 2005).

The experiment deals with engraftment of donor Sca-1+ HPCs (donor Ly5.2 cells among recipient PBMCs). Description: Cytokine pre-conditioning effect on short term engraftment of donor Sca-1+ HPCs after 200 cGy radiation. The settings on record: mice. It is filed as in vivo, C57BL/6-Ly-5.1-Pep3b mice. Here is the method: FIG. 1 is a bar graph showing the cytokine hematopoietic growth factor pretreatment conditioning effect on engraftment of HPCs following 200 cGy radiation in mice, one month after transplantation. Recipient C57BL/6J-Ly-5.1-Pep^3b mice received b.i.d. sc injections of PBS (□) 0.1% BSA, 4 μg rhGCSF (□) in 0.1% BSA, or 4 μg rhGCSF plus 1.0 μg rmSCF(▪) in 0.1% BSA (R&D Systems, Minneapolis, Minn.) for four days. On the fifth day, mice received a single sc injection followed one hour later by a 200 cGy radiation dose. Four hours after irradiation, all mice received 0.5×10^6 Sca-1+BM cells via tail vein injection. Mice were bled 1 month after BMT and PB was analyzed for engraftment. […] The data represent three experiments in series with 2 mice per condition in each experiment. All animals survived this procedure.
The data which forms the basis of the present invention concerns the enhanced in vivo transfer of purified SCA-1+bone marrow derived HPCs using congenic C57BL/6 mice, which differ only at the Ly5 locus. The origin of a cell is detectable by immunoreactivity with either anti-Ly5.1 or anti-Ly5.2 antibodies by FACS of PBMCs. […] Using this system, the effects of pre-transplantation cytokine conditioning on short term engraftment, defined as the percentage of total PBMCs in the recipient that were donor Ly5.2 cells, measured one month after transplantation, have been determined. […]

B1: rhGCSF: recombinant human granulocyte colony stimulating factor (R&D Systems), 4 μg in 0.1% BSA (protein, UniProt P09919 31-207, looked up)
Granulocyte …: TPLGPASSLPQSFLLKCLEQVRKIQGDGAALQEKLVSECATYKLCHPEELVLLGHSLGIPWAPLSSCPSQALQLAGCLSQLHSGLFLYQGLLQALEGISPELGPTLDTLQLDVADFATTIWQQMEELGMAPALQPTQGAMPAFASAFQRRAGGVLVASHLQSFLEVSYRVLRHLAQP
On to B1, for which the “engraftment (percentage of total PBMCs in the recipient that were donor Ly5.2 cells)” value (b.i.d. sc for four days plus final injection on day 5, 0.5×10^6 Sca-1+ cells iv, measured one month after transplantation) is reported as 18.9%. Besides, the “fold increase in engraftment compared with control” value (one month after transplantation, versus vehicle control (0.1% BSA), p<0.01) is given as “at least a three fold increase”.
